Data as given in US20170226216A1.

Biological target: recombinant human BCMA protein conjugated to IgG1 Fc-PE (human) (UniProt Q02223)
Test: flow cytometry, CAR T cells stained with BCMA-IgG1 Fc-PE

Sequence of UniProt Q02223 (Q02223 1-54 limits assumed): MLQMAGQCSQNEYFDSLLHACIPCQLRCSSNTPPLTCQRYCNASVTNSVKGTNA

B1: humanized anti-BCMA-10.2 CAR (protein)
chain: DIVLTQSPASLAVSLGERATINCRASESVSVIGAHLIHWYQQKPGQPPKLLIYLASNLETGVPARFSGSGSGTDFTLTISSLQAEDAAIYYCLQSRIFPRTFGQGTKLEIKGSTSGSGKPGSGEGSTKGQVQLVQSGSELKKPGASVKVSCKASGYTFTDYSINWVRQAPGQGLEWMGWINTETREPAYAYDFRGRFVFSLDTSVSTAYLQISSLKAEDTAVYYCARDYSYAMDYWGQGTLVTVSSAAADTGLYICKVELMYPPPYYLGIGNGTQIYVIDPEPCPDSDFLLWILAAVSSGLFFYSFLLTAVSKRGRKKLLYIFKQPFMRPVQTTQEEDGCSCRFPEEEEGGCELRVKFSRSADAPAYQQGQNQLYNELNLGRREEYDVLDKRRGRDPEMGGKPRRKNPQEGLYNELQKDKMAEAYSEIGMKGERRRGKGHDGLYQGLSTATKDTYDALHMQALPPR
T cells stained with BCMA-IgG1 Fc-PE (CAR surface expression), Donor 1: 86.2
